Data from publication PMC7241105.

Biological target: SARS-CoV-2 receptor binding domain (RBD) (SARS-CoV-2) (UniProt P0DTC2)
Test: BLI

CV30 (antibody)
Kd: 3.6 nM
